Measurements: article PMC4427200 (Acta Crystallographica Section D: Biological Crystallography, 2015)
Values belong to the molecule of their own block, whether it stands above or below them.

Assays:
[1] = target: T1, AroD (Salmonella enterica, UniProt P58687); assay: SPR, single binding isotherm fitting
T1 construct: source cited as Light et al., 2013; used as SPR control protein
T1 sequence (P58687 1-252): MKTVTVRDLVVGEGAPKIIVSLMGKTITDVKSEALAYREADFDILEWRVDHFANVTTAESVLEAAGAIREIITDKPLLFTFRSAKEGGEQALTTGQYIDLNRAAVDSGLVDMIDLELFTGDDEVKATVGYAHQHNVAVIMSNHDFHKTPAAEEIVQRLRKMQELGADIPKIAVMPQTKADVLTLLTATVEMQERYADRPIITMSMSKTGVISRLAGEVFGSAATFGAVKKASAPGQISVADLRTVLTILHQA
Excerpt: SPR, single binding isotherm fitting on AroD | each of the proteins selectively responded to its natural ligand, NADH and DQA, respectively

[2] = target: T2, SaBADH (Staphylococcus aureus, UniProt A0A0H2X0S3); assay: SPR, immobilized SaBADH; format: binding; details: 2 mM ADP, pH 5.0-8.0, 298 K, two-day-old surface
T2 construct: gene betB; pMCSG7 tagged protein (Ni-NTA), E. coli BL21(DE3)/pMAGIC; tetramer/dimer; G234S cloned in p15TV-LIC
T2 sequence (A0A0H2X0S3 1-496): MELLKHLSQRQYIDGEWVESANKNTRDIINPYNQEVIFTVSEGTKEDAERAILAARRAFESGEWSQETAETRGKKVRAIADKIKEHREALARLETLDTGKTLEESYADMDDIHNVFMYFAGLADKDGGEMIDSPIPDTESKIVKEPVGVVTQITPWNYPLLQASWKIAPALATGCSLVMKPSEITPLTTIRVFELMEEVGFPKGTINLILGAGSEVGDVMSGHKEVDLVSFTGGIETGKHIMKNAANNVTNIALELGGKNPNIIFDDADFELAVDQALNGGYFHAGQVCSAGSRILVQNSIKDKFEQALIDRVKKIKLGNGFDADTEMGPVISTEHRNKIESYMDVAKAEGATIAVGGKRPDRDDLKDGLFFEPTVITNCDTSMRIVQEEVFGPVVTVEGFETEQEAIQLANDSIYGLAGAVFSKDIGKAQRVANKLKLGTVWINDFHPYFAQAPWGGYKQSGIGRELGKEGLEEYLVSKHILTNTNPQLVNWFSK

[3] = target: T2, SaBADH; assay: SPR, immobilized SaBADH(BME+); format: binding
[4] = target: T2, SaBADH; assay: NADH absorbance at […] nm; format: biochemical; details: substrate inhibition; co-substrate NAD+; 100 mM potassium phosphate pH 8.0, 303 K
[5] = target: Gly234Ser mutant of SaBADH (G234S-SaBADH) (Staphylococcus aureus COL); assay: crystal structure; X-ray structures of apo and NAD-bound forms, with and without BME; sitting-drop vapor diffusion at 295 K; assemblies analysed with PISA
[6] = target: betaine aldehyde dehydrogenase SACOL2628 from Staphylococcus aureus COL (SaBADH), wild type (Staphylococcus aureus COL); assay: dynamic light scattering; SaBADH^BME(−) 10-100 uM in 10 mM Tris-HCl pH 8.3, 0.5 mM TCEP, with 0.5-2.5 M KCl, 298 K
[7] = target: betaine aldehyde dehydrogenase SACOL2628 from Staphylococcus aureus COL (SaBADH), wild type (Staphylococcus aureus COL); assay: crystal structure; X-ray structures of apo and NAD-bound forms, with and without BME; sitting-drop vapor diffusion at 295 K; assemblies analysed with PISA
[8] = target: betaine aldehyde dehydrogenase SACOL2628 from Staphylococcus aureus COL (SaBADH), wild type (Staphylococcus aureus COL); assay: SEC-MALS; SaBADH^BME(+) 2 mg/ml on Superdex 200 10/300 GL in 10 mM Tris-HCl pH 8.3, 500 mM NaCl, 5 mM BME, 295 K
[9] = target: betaine aldehyde dehydrogenase SACOL2628 from Staphylococcus aureus COL (SaBADH), wild type (Staphylococcus aureus COL); assay: dynamic light scattering; SaBADH^BME(−) 10-100 uM in 10 mM Tris-HCl pH 8.3, 0.5 mM TCEP, no added salt, 298 K
[10] = target: betaine aldehyde dehydrogenase SACOL2628 from Staphylococcus aureus COL (SaBADH), wild type (Staphylococcus aureus COL); assay: dynamic light scattering; SaBADH^BME(−) 10-100 uM in 10 mM Tris-HCl pH 8.3, 0.5 mM TCEP, with 0.5-2.5 M NaCl, 298 K
[11] = substrate: NC(=O)c1ccc[n+]([C@@H]2O[C@H](COP(=O)(O)OP(=O)(O)OC[C@H]3O[C@@H](n4cnc5c(N)ncnc54)[C@H](OP(=O)(O)O)[C@@H]3O)[C@@H](O)[C@H]2O)c1; assay: purified protein; details: co-substrate betaine aldehyde, 100 mM potassium phosphate pH 8.0, 303 K, 30.0 °C, varied: cofactor
[12] = substrate: NC(=O)c1ccc[n+]([C@@H]2O[C@H](COP(=O)(O)OP(=O)(O)OC[C@H]3O[C@@H](n4cnc5c(N)ncnc54)[C@H](O)[C@@H]3O)[C@@H](O)[C@H]2O)c1; assay: purified protein; details: co-substrate betaine aldehyde, 100 mM potassium phosphate pH 8.0, 303 K, 30.0 °C, varied: cofactor

Molecule: O=C1C[C@@](O)(C(=O)O)C[C@@H](O)[C@@H]1O [3-dehydroquinic acid]
Kd [1]: 244 µM

Molecule: Nc1ncnc2c1ncn2[C@@H]1O[C@H](COP(=O)(O)OP(=O)(O)O)[C@@H](O)[C@H]1O [ADP]
SPR, immobilized SaBADH [2]: An acidic pH favored the ADP–SaBADH interaction

Molecule: NC(=O)C1=CN([C@@H]2O[C@H](COP(=O)(O)OP(=O)(O)OC[C@H]3O[C@@H](n4cnc5c(N)ncnc54)[C@H](O)[C@@H]3O)[C@@H](O)[C@H]2O)C=CC1 [NADH]
Kd [3]: 4.5 µM

Molecule: NC(=O)c1ccc[n+]([C@@H]2O[C@H](COP(=O)(O)OP(=O)(O)OC[C@H]3O[C@@H](n4cnc5c(N)ncnc54)[C@H](O)[C@@H]3O)[C@@H](O)[C@H]2O)c1 [NAD^+]
Kd [3]: 19.3 µM

Molecule: C[N+](C)(C)CC=O [betaine aldehyde]
Betaine aldehyde [4]: 0.34 ± 0.06 mM

Molecule: Gly234Ser mutant of SaBADH (G234S-SaBADH) (enzyme)
stoichiometry N [5]: 4

stoichiometry N [6]: 2
stoichiometry N [7]: 4
stoichiometry N [8]: 4
stoichiometry N [9]: 2
stoichiometry N [10]: 4
Molecule: betaine aldehyde dehydrogenase SACOL2628 from Staphylococcus aureus COL (SaBADH), wild type (enzyme)

B1: SaBADH (Staphylococcus aureus subsp. aureus COL) (protein)
chain: T2 sequence (A0A0H2X0S3 1-496)
Km [11]: 2260 ± 350 µM
Km [12]: 430 ± 30 µM
